Reference: paper doi:10.1101/2025.09.30.679617 (bioRxiv, 2025)
Ends that are not written are not given here.

T1: PfCSP junctional peptide 21 (Plasmodium falciparum, strain not …, also: biotinylated, position not given here)
T1 chain: NPDPNANPNVDPNAN

B1: Run1_Seq1 (antibody, V domains shown)
VH: QVQLVQSGTEVKKPGASVKVSCKASGYTFTSYAIHWVRQAPGQRLEWMGWIKVGNGNTRYSQKFQGRVTITRDTSASTAYMELSSLRSEDTAVYYCALLTVLTADDAFDFWGQGTMVTVSS
VL: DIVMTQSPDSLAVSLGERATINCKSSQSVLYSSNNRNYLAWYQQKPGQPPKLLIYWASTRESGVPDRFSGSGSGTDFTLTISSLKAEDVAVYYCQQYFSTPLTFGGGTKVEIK
B2: Run3_Seq1 (antibody, V domains shown)
VH: QVQLVQSGAEVRKPGASVKVSCKASGYTFTTYAIHWVRQAPGQRLEWMGWIKADNGNTRYSQKFQGRVTITRDTFASTAYMELSSLRSEDTAVYYCALLTVVTPDDTFDIWGQGTMVTVSS
VL: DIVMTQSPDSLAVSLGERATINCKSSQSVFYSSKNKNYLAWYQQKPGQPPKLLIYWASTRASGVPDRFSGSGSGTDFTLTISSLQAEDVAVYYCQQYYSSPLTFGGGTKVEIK
B3: Run1_Seq2 (antibody, V domains shown)
VH: QVQLVQSGTEVKKPGASVKVSCKASGYTFTSYAIHWVRQAPGQRLEWMGWIKVGNGNTRYSQKFQGRVTITRDTSANTAYMELSSLRSEDTAVYYCALLTVLTPDDAFDFWGQGTMVTVSS
VL: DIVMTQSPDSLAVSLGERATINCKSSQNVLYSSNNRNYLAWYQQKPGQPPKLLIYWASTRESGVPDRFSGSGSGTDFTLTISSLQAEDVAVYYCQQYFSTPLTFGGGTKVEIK
B4: Run5_Seq2 (antibody, V domains shown)
VH: QVQLVQSGAEVKKPGASVKVSCKASGYTFTSYAIHWVRQAPGQRLEWMGWIKAGNGNTRYSQKFQGRITITRDTSASTAYMELSSLRSEDTAVYYCALLTVITPDYAFDIWGQGTMVTVSS
VL: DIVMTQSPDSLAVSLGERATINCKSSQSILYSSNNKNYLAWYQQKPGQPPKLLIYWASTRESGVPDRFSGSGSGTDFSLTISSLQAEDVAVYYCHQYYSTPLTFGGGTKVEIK
B5: Run2_Seq1 (antibody, V domains shown)
VH: QVQLVQSGAEVKKPGASVKVSCKASGYTFTSYAIHWVRQAPGQRLEWMGWIKAGNGNTRYSQKFQGRVTLTRDTSASTAYMELNSLRSEDTAVYYCALLTVVTPDDVFDIWGQGTMVTVSS
VL: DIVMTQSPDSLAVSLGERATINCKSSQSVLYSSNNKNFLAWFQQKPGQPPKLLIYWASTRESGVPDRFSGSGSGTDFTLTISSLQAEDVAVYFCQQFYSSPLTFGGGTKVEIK
B6: Run4_Seq2 (antibody, V domains shown)
VH: QVQLVQSGTEVKKPGASVKVSCKASGYTFTSYAVHWVRQAPGQRLEWMGWIKAGNGNTRYSQKFQGRVTITRDTSASTVYMELSSLRSEDTAVYYCALLTVITPDDAFDVWGQGTMVTVSS
VL: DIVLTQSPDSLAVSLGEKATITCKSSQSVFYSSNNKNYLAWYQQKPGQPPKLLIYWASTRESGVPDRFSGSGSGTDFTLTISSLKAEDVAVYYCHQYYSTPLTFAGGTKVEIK
B7: Run7_Seq2 (antibody, V domains shown)
VH: QVQLVQSGAEVKKPGASVKVSCKASGYTFTSYAMHWVRQAPGQRLEWLGWIKAGNGNTRYSQRFQGRVTITGDTSASTAYMELRSLRSEDTAVYYCALLTVITPDDAFDIWGQGTMVTVSS
VL: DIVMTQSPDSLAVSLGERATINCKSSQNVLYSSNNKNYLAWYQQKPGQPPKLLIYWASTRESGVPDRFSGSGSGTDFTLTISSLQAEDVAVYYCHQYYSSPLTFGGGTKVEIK
B8: Run4_Seq1 (antibody, V domains shown)
VH: QVQLVQSGTEVKKPGASVKVSCKASGYTFTSYAIHWVRQAPGQRLEWMGWIKAGNGNTRYSQKFQGRVTITRDTSASTVYMELSSLRSEDTAVYYCALLTVITPDDAFDVWGQGTMVTVSS
VL: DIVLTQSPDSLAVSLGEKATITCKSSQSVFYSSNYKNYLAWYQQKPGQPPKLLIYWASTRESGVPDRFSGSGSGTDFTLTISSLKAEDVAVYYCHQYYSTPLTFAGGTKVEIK
B9: Run5_Seq1 (antibody, V domains shown)
VH: QVQLVQSGAEVKKPGASVKVSCKASGYTFTSYAIHWVRQAPGQRLEWMGWIKAGKGNTRYSQKFQGRITITRDTSASTVYMELNSLRSEDTAVYYCALLTVITPDYAFDIWGQGTMVTVSS
VL: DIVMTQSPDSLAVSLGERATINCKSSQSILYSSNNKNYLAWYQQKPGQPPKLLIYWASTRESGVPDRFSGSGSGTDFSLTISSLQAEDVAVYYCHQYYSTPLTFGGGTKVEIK
B10: Run2_Seq2 (antibody, V domains shown)
VH: QVQLVQSGAEVKKPGASVKVSCKASGYTFTNYAIHWVRQAPGQRLEWMGWIKAGNGNTRYSQKFQDRVTLTRDTSASTAFMELSSLRSEDTAVYYCALLTVVTPDDAFDIWGQGTLVTVSS
VL: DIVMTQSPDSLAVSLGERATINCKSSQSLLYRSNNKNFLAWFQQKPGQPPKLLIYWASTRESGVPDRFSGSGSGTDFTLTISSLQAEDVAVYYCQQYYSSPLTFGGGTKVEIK
B11: Run7_Seq1 (antibody, V domains shown)
VH: QVQLVQSGAEVKKPGASVKVSCKASGYTFTKYAMHWVRQAPGQRLEWLGWIKAGNGNTRYSQRFQDRVTITRDTSASTAYMELSSLRSEDTAVYYCALLTVITPDDAFDIWGQGTMVTVSS
VL: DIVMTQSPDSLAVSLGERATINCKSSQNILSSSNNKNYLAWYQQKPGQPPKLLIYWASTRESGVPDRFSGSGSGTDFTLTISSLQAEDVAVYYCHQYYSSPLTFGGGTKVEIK
B12: Run3_Seq2 (antibody, V domains shown)
VH: QVQLVQSGAEVRKPGASVKVSCKASGYTFTTYAIHWVRQAPGQRLEWMGWIKGGNGDTRYSQKFQGRLTITRDTFASTAYMELSSLRSEDTAVYYCALLTVVTPDDTFDIWGQGTMVTVSS
VL: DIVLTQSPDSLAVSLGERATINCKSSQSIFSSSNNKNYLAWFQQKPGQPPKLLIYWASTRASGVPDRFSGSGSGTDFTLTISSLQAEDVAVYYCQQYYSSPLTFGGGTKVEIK
B13: Run6_Seq1 (antibody, V domains shown)
VH: QVQLVQSGAEVRKPGASVKVSCKASGYTFTRYAIHWVRQAPGQRLEWMGWIKAGNGNTRYSQKFQGRVSIIRDTSASTVYMDLSGLRSEDTAVYYCALLTVITPDDAFDIWGQGTMVTVSS
VL: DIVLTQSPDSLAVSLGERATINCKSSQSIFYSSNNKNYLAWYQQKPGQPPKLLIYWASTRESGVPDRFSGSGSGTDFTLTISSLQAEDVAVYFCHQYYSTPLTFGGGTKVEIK
B14: Run6_Seq2 (antibody, V domains shown)
VH: QVQLVQSGAEVRKPGASVKVSCKASGYTFTRYAIHWVRQAPGQRLEWMGWIKAGNGNTRYSQNFQGRVSIIRDTSASTAYMDLSGLRSEDTAVYYCALLTVITPDDAFDIWGQGTMVTVSS
VL: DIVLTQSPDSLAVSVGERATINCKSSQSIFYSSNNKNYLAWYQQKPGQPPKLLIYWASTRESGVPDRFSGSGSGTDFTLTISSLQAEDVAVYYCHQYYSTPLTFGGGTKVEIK
B15: SFR6 (antibody, V domains shown)
VH: QVHLVQSGAEVKKPGASVKVSCKASGYTFSSYAIHWVRQAPGQRLDWMGWIKGGNGDTRYSETFQDRVTISRDTSATTVYMELSSLRSEDTAMYFCALLTVIRRDDTFDIWGQGTMVTVSS
VL: DIVLTQSPDSLAVSLGERATINCKSSQNIFFNSNKKNYLAWYQQKPRQPPKLLFYWASTRESGVPDRFSGSGSGTDFTLTISSLQAEDVAVYYCHQFYSTPLTFGGGTKVEIK
B16: SFR1 (antibody, V domains shown)
VH: QVHLVQSGAEVKKPGASVKVSCKASGYTFSRYAIHWVRQAPGQRLEWMGWIKGGNGDTRYSQKFQDRVTITRDTSASTVYMDLSSLRSEDTAVYYCALLTVIRKDDTFDVWGQGTMVTVSS
VL: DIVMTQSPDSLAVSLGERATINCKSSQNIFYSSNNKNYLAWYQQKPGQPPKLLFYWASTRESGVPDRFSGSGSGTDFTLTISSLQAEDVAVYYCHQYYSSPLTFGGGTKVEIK
B17: SFR2 (antibody, V domains shown)
VH: QVHLVQSGAEVKKPGASVKVSCKASGYTFSRYAIHWVRQAPGQRLEWMGWIKGGNGDTRYSQKFQDRVTITRDTSASTVYMELSSLRSEDTAVYFCALLTVIRKDDTFDVWGQGTMVTVSS
VL: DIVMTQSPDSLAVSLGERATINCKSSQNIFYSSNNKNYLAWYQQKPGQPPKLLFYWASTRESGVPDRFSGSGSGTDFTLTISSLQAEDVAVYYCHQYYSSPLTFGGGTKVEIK
B18: SFR4 (antibody, V domains shown)
VH: QVHLVQSGAEVKKPGASVKVSCKASGYTFSTYAIHWVRQAPGQRLEWMGWIKGGNGDTRYSQKFQGRVTITRDTSASTVYMELSSLRSEDTAVYYCALLTVIRLDETFDVWGQGTMVTVSS
VL: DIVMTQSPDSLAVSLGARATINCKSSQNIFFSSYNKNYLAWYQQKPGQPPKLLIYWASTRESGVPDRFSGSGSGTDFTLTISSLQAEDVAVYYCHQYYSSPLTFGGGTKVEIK

Molecular target: T1, PfCSP junctional peptide 21

Binder | binding result
B1 | binds
B2 | binds
B3 | binds
B4 | binds
B5 | binds
B6 | binds
B7 | binds
B8 | binds
B9 | binds
B10 | binds
B11 | binds
B12 | binds
B13 | binds
B14 | binds
B15 | binds
B16 | binds
B17 | binds
B18 | binds
